# Experimental data: patent US20240189439A1
# Changes are numbered by the printed parent chain.
# B1: Y010903 (antibody, V domains shown)
# VH: EVQLVESGGGLVKPGGSLRLSCAASGFTFSNAWMSWVRQAPGKGLEWVGRIKSKTDAGTTDYAAPVKGRFTISRDDSKNTLYLQMNSLKTEDTAVYYCARASHRLHSLFDVWGQGTLVTVSS
# VL: DIQMTQSPSTLSASVGDRVTITCRASQSISSWLAWYQQKPGKAPKLLIYDASSLESGVPSRFSGSGSGTEFTLTISSLQPEDFATYYCQQGLFYPHTFGQGTKVEIK
# B2: MOR024354 (antibody, V domains shown)
# VH: QVQLLESGGGLVQPGGSLRLSCAASGFTFSSFGMSWVRQAPGKGLEWVSAISYSGSDTYYADSVKGRFTISRDNSKNTLYLQMNSLRAEDTAVYYCARDVGVMDYWGQGTLVTVSS
# VL: SYELTQPLSVSVALGQTARITCSGDNLGTYYAHWYQQKPGQAPVLVIYSQSHRPSGIPERFSGSNSGNTATLTISRAQAGDEADYYCGAWDAPSPELVFGGGTKLTVL
# B3: Y010900 (antibody, V domains shown)
# VH: EVQLVESGGGLVKPGGSLRLSCAASGFTFSNAWMSWVRQAPGKGLEWVGRIKSKTDAGTTDYAAPVKGRFTISRDDSKNTLYLQMNSLKTEDTAVYYCARTIYPSAPSSSLDYWGQGTLVTVSS
# VL: DIQMTQSPSSLSASVGDRVTITCRASQGISNYLAWYQQKPGKVPKLLIYAASTLQSGVPSRFSGSGSGTDFTLTISSLQPEDVATYYCQQLIFFPLTFGQGTKVEIK
# B4: Y010910 (antibody, V domains shown)
# VH: EVQLVESGGGLVKPGGSLRLSCAASGFTFSNAWMSWVRQAPGKGLEWVGRIKSKTDAGTTDYAAPVKGRFTISRDDSKNTLYLQMNSLKTEDTAVYYCARVASPSAPGGFDYWGQGTLVTVSS
# VL: B3 VL with L91S, I92L, F94A, L96F
# B5: Y010906 (antibody, V domains shown)
# VH: EVQLVESGGGLVKPGGSLRLSCAASGFTFSNAWMSWVRQAPGKGLEWVGRIKSKTDAGTTDYAAPVKGRFTISRDDSKNTLYLQMNSLKTEDTAVYYCARDEYPWGWFDVWGQGTLVTVSS
# VL: B3 VL with L11V, N31S, Y32W, V43A, T53S, V83F, L91Y, F94Y
# B6: Y010417 (antibody, V domains shown)
# VH: EVQLVQSGAEVKKPGESLKISCKGSGYSFTSYWIGWVRQMPGKGLEWMGIIYPGDSDTRYSPSFQGQVTISADKSISTAYLQWSSLKASDTAMYYCARGSSAASGLSGDLWGQGTLVTVSS
# VL: DIQMTQSPSSLSASVGDRVTITCRASQSISSYLNWYQQKPGKAPKLLIYAASSLQSGVPSRFSGSGSGTDFTLTISSLQPEDFATYYCQQDYYSPFTFGQGTKVEIK
# B7: Y010355 (antibody, V domains shown)
# VH: EVQLVESGGGLVKPGGSLRLSCAASGFTFSNYWISWVRQAPGKGLEWVGRIKSKTYGGTTDYAEPVKGRFTISRDDSKNTLYLQMNSLKTEDTAVYYCARTSRRSYAFDYWGQGTLVTVSS
# VL: B1 VL with G91I, L92T, F93R, H96V
# B8: Y010356 (antibody, V domains shown)
# VH: EVQLVESGGGLVKPGGSLRLSCAASGFTFSNYWISWVRQAPGKGLEWVGRIKSKTYGGTTDYAEPVKGRFTISRDDSKNTLYLQMNSLKTEDTAVYYCARVSGYYSHSGGFDVWGQGTLVTVSS
# VL: B3 VL with Q90K, L91T, I92W, F93R, F94T, L96G
# Molecular target: human PMEL17 (human) (UniProt P40967)
# Test: FACS titration of IgG on G-361 cells (human melanoma), Alexa Fluor detection antibody
# Chain of human PMEL17 (human) (P40967 25-661): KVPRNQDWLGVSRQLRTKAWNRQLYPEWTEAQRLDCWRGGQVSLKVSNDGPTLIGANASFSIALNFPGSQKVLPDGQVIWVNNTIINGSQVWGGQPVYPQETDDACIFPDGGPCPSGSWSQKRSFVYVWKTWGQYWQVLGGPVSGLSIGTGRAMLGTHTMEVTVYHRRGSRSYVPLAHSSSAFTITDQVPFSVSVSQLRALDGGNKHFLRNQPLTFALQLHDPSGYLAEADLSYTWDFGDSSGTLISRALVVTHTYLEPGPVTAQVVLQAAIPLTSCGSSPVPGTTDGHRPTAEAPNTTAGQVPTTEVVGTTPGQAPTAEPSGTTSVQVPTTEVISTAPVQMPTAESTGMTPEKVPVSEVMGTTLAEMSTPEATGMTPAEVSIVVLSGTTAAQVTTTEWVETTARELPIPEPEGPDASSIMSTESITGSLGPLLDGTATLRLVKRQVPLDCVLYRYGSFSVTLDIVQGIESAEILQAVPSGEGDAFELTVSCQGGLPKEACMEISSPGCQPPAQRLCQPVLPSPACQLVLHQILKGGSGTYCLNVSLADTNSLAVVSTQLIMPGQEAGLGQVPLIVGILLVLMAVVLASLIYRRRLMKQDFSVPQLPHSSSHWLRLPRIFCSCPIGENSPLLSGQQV
row,EC50 [nM],Binder
1,3.2,B1
2,1.7,B2
3,1.3,B3
4,10,B4
5,2,B5

# Molecular target: human PMEL17 (human) (UniProt P40967)
# Test: FACS titration of IgG on G-361 cells (human melanoma), PE detection antibody
row,EC50 [nM],Binder
1,2.8,B6
2,0.5,B7
3,1.6,B8
